The values below come from patent publication US5580854A, “Substrate-related peptidyl-aldehyde inhibitors of the proteolytic activity of the multicatalytic proteinase complex” (Mount Sinai School of Medicine of The City University of …, priority 1994, dated 1996).

Common to all, as to test: Kinetic parameters for degradation of synthetic substrates by the BrAAP component
Common to all, as to format: biochemical, bovine

Substrate in series [1]: CC(C)C[C@H](NC(=O)[C@H](C)NC(=O)CNC(=O)[C@@H]1CCCN1C(=O)OCc1ccccc1)C(=O)N[C@@H](C)C(=O)Nc1ccc(C(=O)O)cc1
The conditions noted are these: other: [S] 1.6-8.0; mean of 2 determinations; from plots of 1/v vs 1/s. From the text: (§1) A coupled two step reaction in the presence of excess aminopeptidase N (AN) was used for the determination of the BrAAP and SNAAP activities as described previously (Orlowski et al., Biochemistry 32:1563-1572 (1993)). Aminopeptidase N was purified from hog kidneys as described by Pfleiderer, Meth. Enzymol. 19:514-521 (1970) and freed from the contaminating metalloendopeptidase (EC 3.4.24.11) as previously described (Almenoff & Orlowski, Biochemistry 22:590-599 (1983)).
(§2) The flexibility of the amino acid residue in the P4 position of the inhibitors of the present invention is based on results of substrate specificity studies of the BrAAP component. Activities towards various analogs of the prototypic BrAAP substrate Cbz-Gly-Pro-Ala-Leu-Gly-pAB were determined using the coupled two-step reaction carried out in the presence of AN, as described in Example 4. The BrAAP substrates tested included the following:
(§3) Data represent mean values for 2 separate determinations. For substrates
(§4) with MichaelisMenten kinetics, Km and kcat were determined from
(§5) the regression line fitted to plots of 1/v vs 1/s. Kcat was estimate
(§6) assuming a molecular mabs of 700 KDa and assuming one active site per
(§7) molecule. […] The apparent Km for
(§8) this substrate is taken as the substrate concentration at half of the
(§9) Vmax observed. kcat for this substrate was calculated assuming
(§10) Vmax of 300 U/mg and assuming one active site per molecule of MPC.

Substrate in series [2]: CC(C)C[C@H](NC(=O)[C@H](C)NC(=O)CNC(=O)CNC(=O)OCc1ccccc1)C(=O)N[C@@H](C)C(=O)Nc1ccc(C(=O)O)cc1
The conditions noted are these: other: [S] 0.8-4.8; sigmoidal kinetics; substrate concentration at half of the Vmax observed.
Source text: as §1, §2, §3, §4, §5, §6, §7, §8, §9, §10

Substrate in series [3]: CC(C)C[C@H](NC(=O)OCc1ccccc1)C(=O)NCC(=O)N[C@@H](C)C(=O)N[C@@H](CC(C)C)C(=O)N[C@@H](C)C(=O)Nc1ccc(C(=O)O)cc1
The settings on record: other: [S] 1.6-8.0; mean of 2 determinations; from plots of 1/v vs 1/s.
Source text: as §1, §2, §3, §4, §5, §6, §7, §8, §9, §10

B1: BRAAP component of the MPC (Bos taurus) (protein)
chain 1: TTTLAFKFRHGVIVAADSRATAGAYIASQTVKKVIEINPYLLGTMAGGAADCSFWERLLARQCRIYELRNKERISVAAASKLLANMVYQYKGMGLSMGTMICGWDKRGPGLYYVDSEGNRISGATFSVGSGSVYAYGVMDRGYSYDLEVEEAYDLARRAIYQATYRDAYSGGSVSLYHVREDGWIRVSSDNVADLHDKYSGSTH
chain 2: TTIMAVQFDGGVVLGADSRTTTGSYIANRVTDKLTPIHDRIFCCRSGSAADTQAVADAVTYQLGFHSIELNEPPLVHTAASLFKEMCYRYREDLMAGIIIAGWDPQEGGQVYSVPMGGMMVRQPFAIGGSGSSYIYGYVDATYREGMTKEECLQFTANALALAMERDGSSGGVIRLAAIAEPGVERQVLLGDQIPKFTIATLPPL
chain 3: TTIAGVVYKDGIVLGADTRATEGMVVADKNCSKIHFISPNIYCCGAGTAADTDMTTQLISSNLELHSLSTGRLPRVVTANRMLKQMLFRYQGYIGAALVLGGVDVTGPHLYSIYPHGSTDKLPYVTMGSGSLAAMAVFEDKFRPDMEEEEAKKLVSEAIAAGIFNDLGSGSNIDLCVISKSKLDFLRPYSVPNKKGTRFGRYRCEKGTNAVLTEKVTTLEIEVLEETVQTMDTS
notes: The MPC was isolated from frozen bovine pituitaries; tissue PelFreeze, Inc. (Rogers, Ark.) (supplier of the tissue; the enzyme was purified in house); host or cells: bovine pituitaries
As a reminder, the Km is the concentration of substrate that gives half-maximal velocity. A word on the kcat: it is the maximal rate divided by the concentration of active sites. As usually defined, the kcat/Km is the second-order rate constant that governs catalysis at low substrate concentration. On to B1, for which, in series [1], the Km worked out at 8.7 mM, the kcat was 8.4 s⁻¹ and the kcat/Km is 960 M⁻¹ s⁻¹. In series [2], the Km was 2.5 mM, the kcat was found to be 58 s⁻¹ and the kcat/Km is 23,300 s^-1 M^-1. In addition, in series [3], the Km was 30 mM, the kcat turned out to be 24 s⁻¹ and the kcat/Km came to 820 M⁻¹ s⁻¹.
